Results from paper PMC11479839.
Like-named read-outs stand apart in the source and are kept apart here.

B1: 1 NC Ebox CATATG (table: NC Ebox-TC; text: NCE-TA) (dsDNA)
DNA 1: AGCTTAACTGACCATATGGTCAACTA
DNA 2: TAGTTGACCATATGGTCAGTTAAGCT
B2: 1Ebox (dsDNA)
DNA 1: AGCTTAACTGACCACGTGGTCAACTA
DNA 2: TAGTTGACCACGTGGTCAGTTAAGCT
B3: 1 NC Ebox CATCTG (table: NC Ebox-TA; text: NCE-TC) (dsDNA)
DNA 1: AGCTTAACTGACCATCTGGTCAACTA
DNA 2: TAGTTGACCAGATGGTCAGTTAAGCT

How the values were obtained:
N-myc;MAX [1] = target: T1, N-myc;MAX (human;human, UniProt P04198;P61244 1-464;1-160, |); experiment: fluorescence anisotropy
N-myc;MAX [2] = target: T1, N-myc;MAX; experiment: fluorescence anisotropy; remark: listed apart in the source

T1 sequence (P04198 whole entry, chain 1 of 2): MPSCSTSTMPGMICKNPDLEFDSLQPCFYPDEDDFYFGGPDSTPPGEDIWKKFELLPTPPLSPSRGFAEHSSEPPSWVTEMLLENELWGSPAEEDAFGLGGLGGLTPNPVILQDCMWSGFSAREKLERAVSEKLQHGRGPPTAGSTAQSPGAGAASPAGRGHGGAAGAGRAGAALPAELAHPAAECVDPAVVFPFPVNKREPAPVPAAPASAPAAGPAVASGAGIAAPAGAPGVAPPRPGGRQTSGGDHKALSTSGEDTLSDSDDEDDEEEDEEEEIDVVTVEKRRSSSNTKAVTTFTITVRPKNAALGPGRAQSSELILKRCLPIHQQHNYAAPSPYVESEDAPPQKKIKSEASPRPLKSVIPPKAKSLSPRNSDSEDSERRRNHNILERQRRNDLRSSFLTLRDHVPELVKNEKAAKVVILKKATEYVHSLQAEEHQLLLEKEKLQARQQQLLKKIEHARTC
T1 sequence (P61244 whole entry, chain 2 of 2): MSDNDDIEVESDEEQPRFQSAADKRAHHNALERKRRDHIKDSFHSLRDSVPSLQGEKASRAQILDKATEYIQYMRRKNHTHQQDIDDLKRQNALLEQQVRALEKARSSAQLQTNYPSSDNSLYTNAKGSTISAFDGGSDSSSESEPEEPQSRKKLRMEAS

Binder	Kd (N-myc;MAX [1]) [nM]	Kd (N-myc;MAX [2]) [nM]
B1	~735	–
B2	–	~150
B3	~655	–
